Source: the domain aggregation screens of Martell et al. (2025)

Assay: soluble fraction after stress (log2 fold change); higher = more stays soluble; pooled small domains, quantitative proteomics
Conditions: stress: 75 degC
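Note: 20 min heating vs room temperature control held 20 min.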

Sequence	soluble fraction (log2)
HMVVLNQEQIKFIDHYLQVSKVRYVDVRSELTDHIATAVELKMQDEALDFYEAFKAFIAVNKSQLLQRN	-1.06
HMGIDVSAFSDTALEVLRLQAAGYTTREIAQQLHITQRTVKYHASENYRKLDARNLVDAVQIAQSLHI	-1.5
HMSSVHTMEVKSTTQIKVLDENKNLSSYYSMKNPVSFNYRLFFLNQDELKKLQEDLKTNNDIQSIDIKYA	-0.484
HMRNNKLRRANKLKTEFENLPHIGKKRAHVLLKAFGSTENLKMTTAQALSEAAKISLKQAEEVLEAVRG	-0.466
HMVMTTVPEVLGMDISKAASLLTGKNLDYDYDLVESDKPKDQVIEQDVVKGTEVPEGTVIHLKVSKGPA	0.258
HMNQIFAPMPGLVLEVKLSEGDVVAEGESAIILEAMKMENIIKSPINGIVKKVHVKKGQTIEKNTLIISFK	-3.1
HMGDLKALMPGKVTQVLVSGGQKVKVGEPVLLMESMKMEQTIVATKDGDISEILVSEGDTVEVGKIMIKI	-0.00398
HMGEPTLTIRVVSYNPQSGEMVVVARDPLSGRYALATLNVRTGAGQMIGPQGELLPIENFALGS	-1.65
HMPEVTMSYSARNQVVSFSKATQYEIVDEFGTVVLRGVGNQATLRYLSRGDYFVNFGAGTEVLKK	-0.0464
HMALPGESVYVSILQSGSNRDQGVGYLDDGTMVVVDGAIKDIGKSIEVVINKSHQTVAGKMLFAKKVA	-0.667
HMTQHDIVPLMLKMVDVLTQFVELDIPFLQQERQTRLAALNAMMGRADVSLAEKYRRIMEAYQVETEYG	-0.0856
HMDDDAELLLKKLSAAGGELPFHDRSEPAEIEAAFGLSKSAFKRALGKLLKAGKVVKTQQGIQLK	0.162
HMLDGFEVGMTVMRKPGTETGFTGWPPFADKDEFPVIERIDTSDSTLLLRFNDTSWWINASLVEPSDV	-2.19
HMAVSDAAEEYGKAGTPLVILAGKEYGSGSSRDWAAKGPYLQGVRAVLAESYERIHRSNLVGMGIVPLTYK	0.18
HMSMFTPAQVAQTLTVPPSTLRRWAKRFAPFLSPQSGKKRTYTVADLDTFQRIKELSAQGYTFAQIDQAL	-1.32
HMQYDESSQLGERFLNQALNALKADPDKVGDAQWEKLLKENSAKSRQEVLADIGLGKQLAIVIARELLS	-0.148
HMSSEQRSVLFPNLAETDKVAVIEALMAAGVNARVDSASGRVTVPSGDYYNSRAILAAQGLPTS	0.0148
HMTETEIVIGGKYRHYKGGEYELVSIVKHSETLEELVIYKSLSTGEMWARPKSLFVGLVDGQPRYTL	-2.22
HMGATFITSSKDNAINIRQAAGTDSKVIETIKNGHILESSEKSGEWYKVTYYDSDIKKTFTGYIHNSQLK	0.376
HMAEPIAAGKYTVSTSGSVLNMRVSPDADSQVLEKIPNGTIVEVTKSVLGWAYVTYNSAQGWVSSAYLV	-1.62
HMPLNRFLNLPHEDKERVLLIAKKQFSTHGYDAMSLNLLLKELDISKGQFYYWFEDKADLFFTVL	-0.11
HMAQIVNLPRKNVNGASYYYYEVQPKETIYSISRKLGVSGAEIQRHNPSVADGLKIGQVLYFPAEG	-0.0642
HMTEISGIEKFLASGAINGIGPAMAKKIVAEFGEKTLEIIAKSPNELLKVPGIGKKTAEKISTSYLEQ	-0.04
HMEDKFEYQGELKSLIEPTSFSELVSALNVRDTLQAIIDFAMREEDTSGYEELKVRQNDYIQEYLNSIGNF	-0.761
HMAEPLMTQIVEIEYADAEGLRENLEQFLTRLDEKTLLGSVLVDRHTNSLIIQAVRSDLERMLPLIETLDR	-0.804
HMSYKDIKEASDTGTYRDEENNIDVKWQKLFNGHNEYFDIEAYRDGERVEINNQQADRYIYLIKQEMD	0.678

Sequence	soluble fraction (log2)
HMFKMRVNGKEVIGMAITAKPQANPIDVADEIKKFVIDANTKLPSTMKLEVLYDATGIFRASISEVIS	-1.08
HMDKGMQTMIDNLHKNTGKTLEEWIALVNRANFAKHGEVISFLKEKHGLTHGYANLVAHRLK	0.863
HMENQMIIYIDENDENKRLDSYLSEITPDYSRSKIQNFIKNGNVTVNDSNKKPSYLLKENDKISFELPQQ	-0.0893
HMADASVTAYFKIAEDRLQGRLPDTFSEASLKARYQLTPAQLTAVLTRIAQEGWAERKPGYGWAFSSML	-1.62
HMSQLYINATDDGWVIGNLPADAREVLLTTLGGQVVARYHVTAPSLRVKAPRKGVYIVSVETA	-2.11
HMPSGLFEPIKKSELSIESIDLLKDQIRAFKQADIRITFGFLLDLITKGENPAYVNASKLFEQAWER	0.141
HMTALSAREHEVLQLITRGYTADEIAAMLQISRHTALTYVRRIYSKLKVNSKAEAIFEVRQR	-0.926
HMIGKDLLGYEVFSESGDLVGILKDVMWLPHSDVYVITNGGKELLIPVIPEVVKGINHEQGVIVISPM	0.394
HMNGDYFEYRYAVNGSRSTPPSLSKTSRNPSGWSTTVPTVGNLQYLWFTVAKINGETNSLIQNWSTPARQT	-1.88
HMTTQIPEEVQKRVNQFYEALDEEDYGEAKQILEELEKATAPDHPTLIQMRTRYEFDTMELR	0.329
HMNYYYKDNQYWYVGFRYDERLVKEIKRFVGAGYNPENKEWYIPFTLPTVAPLQKWLHDNGFVEGMNYYP	-2.56
HMTKGVQMFAEQLKRTRQSRHYSQAEIASKLGVTQQAIAKWETGVSTPSPTSISKLSDILGISTDVLLKGA	0.0396
HMVPTYEAYVGKEGLVVGTLRPAGTAEFDGERLDVVSEGEYLEAGTRVQIVRTEGRRIVVRKIN	-0.275
HMEAKSSTKALLDVVLGRNGVSTANVAKSLNISVQNASTRLKKLSSEGVIMRSEVSSPTGGIEFIYS	0.109
HMGSFTDKQIKQAFGVLNDPRFKQGNYDGAVAVINKIAPGLADHPSVANALKRANEATQDIAQQTQA	0.0868
HMKLSALRDKIKEHLLRQIQNGELQVGKTINLAALSRVTGISVTPIREALTQLEQAQVIQAVPNRGFVVA	-0.418
HMEMVSMPGLTGSTLEFATKTLTENELKYEVVYIVDASAESGLIIRTYPTEGEMVSKKTSTIYLYIKE	-3.4
HMENLTLVIGNKLKNIRNSRNLSLDDVAELTGVSKAMLGQIERGKSNPTVSTLWKISTGLRVSFSSFIDE	-3.44
HMLTAPMPGIVRQVNVDTGQKVRKGQPLMVLEAMKMEHQIIAPQAGKIEAIHYNEGDRVEMGSVLISIF	-1.17
HMALLSNEDIMFNLEFNRDLAVASNDGVSRDEFLRNKYGISEEEYNMLRARYGDGLNAARIKEYVGQRD	-0.182
HMKSIPKIKWNSTLENIKNFEYQDNFFESKEMYDLLVSFYKYGFVIIKNIPTNNNFIVKFANSIGS	0.0519
HMITDSSEIEAMVDALVKENPGQAEQYKDGNMKVAGWFIGQIMKVSKGKANPQLVGDLLKKKLG	0.197
HMVGADTISDLISQRGRMIGDKPITNAVIKSGSEFSTINALSKAIASGDARTNDVEGMKPVFR	-0.126
HMNYSKQRETILKVLRSTRSHPSVNWIYENVKKEIPDVGLATVYRNLKQLEAAGEIMRIQGDFPEERWDGF	-1.65
HMPAEGWEASGDTWRYRQKDGSYITNAWVQDTDGKWYYFDESSLMVRNQTTSDGYYVGEDGVWTET	-0.136
HMNNQMTFSKFLNEVDAGRVVEVEIQGNNIKGVLADGNRFNTFSPNYPNLVEKLSDKGVSITAAPK	0.174

Sequence	soluble fraction (log2)
HMEGLDDKTKIILFAGDKKEQEYSLADLKSKLNITENLTESELIKLLEKQGYVLDVNANNEFMFKKD	-0.012
HMAQSLAQKINNYILTNRSSIANVAKSIGYSRTTVSRYLAGKYDSDPTDLENKLAEFLAHETGE	-0.253
HMIIIMKPNASEEAVRKVTHIIESKGLQVHLSKGSQVTIVGVVGDKTRLQGSNIEISEGVDKVVAVT	-1.22
HMISDEELLVSTKKEIMSLATVLTKTDKKDDAIAIMKEYDPAANPNRIKDVNKAKELLERLQKLG	-0.225
HMEHTPHGVALLRTLMDQYGLKAADLANELGSKSNVSNILNGRRALTVSHIKMLAERFNLPADAFI	-1.33
HMNVDALVGMPARVTRAFVQGAGEVKLDNGETWTARLSAGVTDAEASVGQTVSVIAVRGAAVEVAPE	0.0183
HMIVNEQEQTFIKAMRDDDFNTILELKMKGYQPSDNVLKSLQPDISSTTFIAAAKIFQMERMLK	-0.502
HMQDQVTLIVQVNGKLRGQISISTDATKELIEQTALANENVQKFVDGQSIKKIIIVPGRLVNIV	-0.939
HMKLTTRQTEIINIVKAEQPISGEKIAQNLGLSRATLRNDLSILTMTGLLDAKPKVGYFYTGQ	-0.976
HMIDAKTTLQELTQKSGKKPEYRLIKIEGPDHLRRFTVEVFIDGQSMGTGTGHSKKEAEQNAANFALKNLQ	-0.00455
HMESRETGLPVVIISDGRILQDNLKRRGLDLSWLDKQLAEHGYPDFRDVFLLTVDEAGGVYFVPRE	0.438
HMDSRQIIAALQARYADETGITALKIKFNNVLGYFVDVPARYGDPLMKPPLSETFIHRQTLASNVRF	-0.0679
HMPALELLVESKKPLLIHGEKIAEDINLFDREKYFIDDELIRIVKEFPSLKIILEHVSSKYGAD	-2.18
HMHAGQIISQKIKESGISISHVAKHLKVQRATLYNLFEREVWPAHRLRTIEALLHIDLSDLYP	-2.61
HMNSTRAPYLLDFEEDAAIREARRAGLVPRIARQPSGEPVGRVILQSHDYDYPMKRGDTILITISSG	-0.833
HMTPTITNALEEAEKAVSEVQEGKKEIELTPQGAYIRHLQHAIADRYGISSTSTGRDPKRKVIIY	-0.578
HMSIGKEATPDDIVPNIRVYHATFGYGNVIKTDGVSHDKKAVVNFDSVGEKTLLLKFAKLILPY	-0.557
HMMNNKEIGTRIAVLRKGMGDSQAKLAERLDVSPQAVSKWETGQSLPDIGNLLKLSWLFRTSINHILEGS	-2.18
HMYATQLLQLEEMGFFDRAENIRALRATNGNVNAAVERL	-0.202
HMTGWINVDKNWYYMNNSGSMARGMINVNNVSYYLDENGKMLSNTTVNVNGTDYRIDASGAMSQI	-0.182
HMSSLTQREYEIAELVADGLSNKAIAAELSISHTTAARHVANIMNKLGFNSRSQIAAWVADRAQG	0.0373
HMNKAYLTVADMKKDKSLKNGDVVRTLGYYGYNDGDGAVYQIKDSHPEDYHIRLDNGLDAEQINY	0.185
HMQEESISWKEFLELDIIGDKKKRLKVYDLFHLGYGNAKTLFKRLNMVGISREMIEKELENEGY	-1.39
HMAHKRVDGTIVTPLTADTIVLRTGTHGEQPFEIRDTTRHKLESLQKGDMVILLIDTDNKVIDVAIPP	0.373
HMYLYADIYKKLEEKIKNMEVGEKLPSERAMVQEYGVSRNVLREALVLLSERGLIEIRPGKGSYVTNQQ	-1.17
